This test has as its target adenomatous polyposis coli (APC), endogenous in Xenopus egg extracts (Xenopus laevis (endogenous in egg extracts)) (UniProt P70039). Kind of test: co-IP.
Sequence of UniProt P70039 (P70039 whole entry): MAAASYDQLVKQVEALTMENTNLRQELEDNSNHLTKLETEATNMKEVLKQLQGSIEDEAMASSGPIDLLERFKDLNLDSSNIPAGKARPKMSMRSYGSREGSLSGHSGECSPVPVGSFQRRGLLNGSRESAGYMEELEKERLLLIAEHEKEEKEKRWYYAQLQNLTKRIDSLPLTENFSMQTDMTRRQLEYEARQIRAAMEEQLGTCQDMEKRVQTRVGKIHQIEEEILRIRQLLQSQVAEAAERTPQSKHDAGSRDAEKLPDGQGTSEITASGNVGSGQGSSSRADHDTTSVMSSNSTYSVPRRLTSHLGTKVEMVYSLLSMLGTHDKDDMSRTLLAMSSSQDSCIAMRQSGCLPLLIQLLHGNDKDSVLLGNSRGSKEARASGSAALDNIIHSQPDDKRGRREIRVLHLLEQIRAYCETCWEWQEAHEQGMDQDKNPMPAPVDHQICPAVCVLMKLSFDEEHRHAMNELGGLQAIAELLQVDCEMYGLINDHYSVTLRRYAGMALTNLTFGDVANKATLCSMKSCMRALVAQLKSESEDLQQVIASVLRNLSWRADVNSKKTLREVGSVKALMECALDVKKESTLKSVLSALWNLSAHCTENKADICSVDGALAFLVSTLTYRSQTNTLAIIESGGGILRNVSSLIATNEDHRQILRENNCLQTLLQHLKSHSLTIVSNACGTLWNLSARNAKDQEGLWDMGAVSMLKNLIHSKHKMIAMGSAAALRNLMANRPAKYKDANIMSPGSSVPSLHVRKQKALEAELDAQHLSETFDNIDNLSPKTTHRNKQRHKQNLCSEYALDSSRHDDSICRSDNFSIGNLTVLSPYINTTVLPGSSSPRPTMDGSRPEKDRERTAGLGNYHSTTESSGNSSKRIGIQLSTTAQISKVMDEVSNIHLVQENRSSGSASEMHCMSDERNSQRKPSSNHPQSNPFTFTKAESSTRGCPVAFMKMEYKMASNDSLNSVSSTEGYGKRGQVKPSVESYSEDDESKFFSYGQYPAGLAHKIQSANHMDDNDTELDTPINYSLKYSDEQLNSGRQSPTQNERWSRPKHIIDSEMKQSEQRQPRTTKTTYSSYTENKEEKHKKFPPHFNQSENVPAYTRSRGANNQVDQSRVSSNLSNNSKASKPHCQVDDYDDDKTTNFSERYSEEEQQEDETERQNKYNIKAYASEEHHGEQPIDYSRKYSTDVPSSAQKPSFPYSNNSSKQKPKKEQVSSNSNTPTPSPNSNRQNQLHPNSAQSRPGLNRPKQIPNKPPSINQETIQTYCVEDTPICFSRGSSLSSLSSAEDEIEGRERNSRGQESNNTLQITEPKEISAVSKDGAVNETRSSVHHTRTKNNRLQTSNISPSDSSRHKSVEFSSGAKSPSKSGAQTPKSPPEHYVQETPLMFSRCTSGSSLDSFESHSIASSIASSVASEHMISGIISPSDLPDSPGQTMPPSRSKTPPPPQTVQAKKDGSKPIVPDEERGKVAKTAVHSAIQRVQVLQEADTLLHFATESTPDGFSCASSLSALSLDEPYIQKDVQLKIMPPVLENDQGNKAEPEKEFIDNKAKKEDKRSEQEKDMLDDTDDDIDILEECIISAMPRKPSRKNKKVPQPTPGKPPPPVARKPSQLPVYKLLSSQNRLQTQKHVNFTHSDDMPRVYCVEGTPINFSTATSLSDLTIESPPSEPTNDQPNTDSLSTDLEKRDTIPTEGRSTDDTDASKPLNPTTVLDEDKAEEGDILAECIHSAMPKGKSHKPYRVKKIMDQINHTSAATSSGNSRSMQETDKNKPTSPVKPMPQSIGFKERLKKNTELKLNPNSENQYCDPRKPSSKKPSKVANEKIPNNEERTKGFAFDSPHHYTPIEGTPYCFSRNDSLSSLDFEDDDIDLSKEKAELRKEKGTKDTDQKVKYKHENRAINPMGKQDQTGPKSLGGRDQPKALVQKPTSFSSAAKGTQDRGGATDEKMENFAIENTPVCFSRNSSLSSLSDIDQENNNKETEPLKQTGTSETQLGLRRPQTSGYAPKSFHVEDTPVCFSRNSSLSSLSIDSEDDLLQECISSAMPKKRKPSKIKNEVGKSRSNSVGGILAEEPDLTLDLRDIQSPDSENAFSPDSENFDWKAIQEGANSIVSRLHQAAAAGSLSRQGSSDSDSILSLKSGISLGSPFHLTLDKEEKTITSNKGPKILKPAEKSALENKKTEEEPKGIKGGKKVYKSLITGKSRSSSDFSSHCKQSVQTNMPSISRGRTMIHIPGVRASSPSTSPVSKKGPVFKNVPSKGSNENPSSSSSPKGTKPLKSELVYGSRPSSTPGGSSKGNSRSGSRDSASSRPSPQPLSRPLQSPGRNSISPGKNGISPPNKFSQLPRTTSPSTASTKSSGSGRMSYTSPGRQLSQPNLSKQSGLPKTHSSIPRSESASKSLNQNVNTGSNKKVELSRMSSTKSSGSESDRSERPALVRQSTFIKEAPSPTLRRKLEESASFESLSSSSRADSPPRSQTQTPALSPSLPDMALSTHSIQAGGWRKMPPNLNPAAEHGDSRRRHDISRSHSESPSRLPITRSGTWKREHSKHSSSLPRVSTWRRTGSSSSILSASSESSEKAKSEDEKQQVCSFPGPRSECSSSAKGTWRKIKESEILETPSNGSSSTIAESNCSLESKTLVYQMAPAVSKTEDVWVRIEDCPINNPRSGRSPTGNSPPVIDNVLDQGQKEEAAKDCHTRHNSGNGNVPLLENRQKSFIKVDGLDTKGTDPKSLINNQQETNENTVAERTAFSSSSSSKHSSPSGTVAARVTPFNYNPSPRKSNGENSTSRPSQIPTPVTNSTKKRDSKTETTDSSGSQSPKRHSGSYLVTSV

On to “GST–KD-BubR1 (recombinant Xenopus kinase-dead BubR1) (from UniProt B7ZQ97 1-1041) (natural protein)”, for which the percent less coimmunoprecipitated with APC than WT-BubR1 was 40%.

Values taken from article PMC2064543.
